From paper PMC8683598

Experiments:
[1] = biological target: FLAG-T. castaneum methoprene-tolerant (T. castaneum); assay: SEC-MALS; purified complex loaded at ~5 mg/ml, Superdex 200 10/300, 50 mM Tris, 350 mM NaCl, 10 uM methoprene, 2 mM MgCl2, 100 uM TCEP, pH 8.0; peak fractions checked by SDS-PAGE
[2] = biological target: FLAG-T. castaneum methoprene-tolerant (T. castaneum); assay: native MS; purified methoprene-bound complex exchanged into 200 mM ammonium acetate pH 7.4, nano-ESI, Synapt G2Si

Substance: His6-Tribolium castaneum taiman (TcTAI) (domain or fragment)
- stoichiometry N [1]: 1
- stoichiometry N [2]: 1
